Laboratory results as given in the DeepSol protein solubility set.

assay: soluble on expression in E. coli; label from the status in PepcDB or PDB records

| Sequence | soluble on expression in E. coli |
| --- | --- |
| MLKFRTVHGGLRLLGIRRTSTAPAASPNVRRLEYKPIKKVMVANRGEIAIRVFRACTELGIRTVAIYSEQDTGQMHRQKADEAYLIGRGLAPVQAYLHIPDIIKVAKENNVDAVHPGYGFLSERADFAQACQDAGVRFIGPSPEVVRKMGDKVEARAIAIAAGVPVVPGTDAPITSLHEAHEFSNTYGFPIIFKAAYGGGGRGMRVVHSYEELEENYTRAYSEALAAFGNGALFVEKFIEKPRHIEVQILGDQYGNILHLYERDCSIQRRHQKVVEIAPAAHLDPQLRTRLTSDSVKLAKQVGYENAGTVEFLVDRHGKHYFIEVNSRLQVEHTVTEEITDVDLVHAQIHVSEGRSLPDLGLRQENIRINGCAIQCRVTTEDPARSFQPDTGRIEVFRSGEGMGIRLDNASAFQGAVISPHYDSLLVKVIAHGKDHPTAATKMSRALAEFRVRGVKTNIAFLQNVLNNQQFLAGTVDTQFIDENPELFQLRPAQNRAQKLLHYLGHVMVNGPTTPIPVKASPSPTDPVVPAVPIGPPPAGFRDILLREGPEGFARAVRNHPGLLLMDTTFRDAHQSLLATRVRTHDLKKIAPYVAHNFSKLFSMENWGGATFDVAMRFLYECPWRRLQELRELIPNIPFQMLLRGANAVGYTNYPDNVVFKFCEVAKENGMDVFRVFDSLNYLPNMLLGMEAAGSAGGVVEAAISYTGDVADPSRTKYSLQYYMGLAEELVRAGTHILCIKDMAGLLKPTACTMLVSSLRDRFPDLPLHIHTHDTSGAGVAAMLACAQAGADVVDVAADSMSGMTSQPSMGALVACTRGTPLDTEVPMERVFDYSEYWEGARGLYAAFDCTATMKSGNSDVYENEIPGGQYTNLHFQAHSMGLGSKFKEVKKAYVEANQMLGDLIKVTPSSKIVGDLAQFMVQNGLSRAEAEAQAEELSFPRSVVEFLQGYIGVPHGGFPEPFRSKVLKDLPRVEGRPGASLPPLDLQALEKELVDRHGEEVTPEDVLSAAMYPDVFAHFKDFTATFGPLDSLNTRLFLQGPKIAEEFEVELERGKTLHIKALAVSDLNRAGQRQVFFELNGQLRSILVKDTQAMKEMHFHPKALKDVKGQIGAPMPGKVIDIKVVAGAKVAKGQPLCVLSAMKMETVVTSPMEGTVRKVHVTKDMTLEGDDLILEIE | not soluble |
| MLKHIPKNISPDLLKTLMEMGHGDEIVLADANYPSASCANKLIRCDGVNIPELLDSILYLMPLDSYVDSSIQFMNVVSGDDIPKIWGTYRQMIEGHGTDLKTITYLRREDFYERSKKAYAIVATGETSLYANIILKKGVVVERENVQ | soluble |
| MLKIFNTLTRQKEEFKPIHAGEVGMYVCGITVYDLCHIGHGRTFVAFDVVARYLRFLGYKLKYVRNITDIDDKIIKRANENGESFVAMVDRMIAEMHKDFDALNILRPDMEPRATHHIAEIIELTEQLIAKGHAYVADNGDVMFDVPTDPTYGVLSRQDLDQLQAGARVDVVDDKRNPMDFVLWKMSKEGEPSWPSPWGAGRPGWHIECSAMNCKQLGNHFDIHGGGSDLMFPHHENEIAQSTCAHDGQYVNYWMHSGMVMVDREKMSKSLGNFFTVRDVLKYYDAETVRYFLMSGHYRSQLNYSEENLKQARAALERLYTALRGTDKTVAPAGGEAFEARFIEAMDDDFNTPEAYSVLFDMAREVNRLKAEDMAAANAMASHLRKLSAVLGLLEQEPEAFLQSGAQADDSEVAEIEALIQQRLDARKAKDWAAADAARDRLNEMGIVLEDGPQGTTWRRK | soluble |
| MLKPKEINTENKSKKRIYLSSPHMSDEGYEKQYINEAFETNWIAPLGKNVDEFEKELAAKVGIKAAAALSSGTAAIHMALKAAGVGEGDIVFCPTLTFAATANPIIYQNAIPVFIDSDYETWNMSPEALEEAFKKYPKVKAVLVVHLYGLSADMDKIVEICKKHDVQLIEDAAESLGTTYKGRYTGTIGDYGIYSFNGNKIITTSGGGMLVSDNEERIAKVRFWATQARDNARHYQHSELGYNYRMSNVIAGIGRGQLKVLDQRIEKKRYIFDFYKRELGCIDEIDFMPVNDWNKPNCWLTCITLTGKVRPLDVIIRLEEENIESRPVWKPMHMQPFYQHYDYIGSNVSEKIFENGVCLPSDTKMTDEDLYRVVNIIKGLWK | not soluble |
| MLKRCNFKNQVKYFQSDFEQLIRQHPEKIIILDFYATWCGPCKAIAPLYKELATTHKGIIFCKVDVDEAEDLCSKYDVKMMPTFIFTKNGDAIEALEGCVEDELRQKVLEHVSAQ | not soluble |
| MLLAGLLASVEHGLNRVLRLDSTALPRLAALEGKVIEIDCRQPALQVFILPDEEGLMLAAHWQGEVDCRLRAPAGSLAQLALVKDKTAVLHSPQVELHGDSAVLLDLFGVLQDLELDWEHELQRWLGPVATAMLAGHIRLRARWTRQGLARFSQNLSEYLAEESRTLVGKREAEAAFSELDALKLDTERLEARLKRLSRSLDTSDNA | not soluble |
| MLLENGWIVGVKQVLSPHFDLRPEGEMPSLLVIHSISLPPSEFGGPYIDQLFTGTLNADEHPYFASIVHLRVSAHCLIRRDGEIIQYVPFDKRAWHAGVSVFAGRERCNDFSIGIELEGTDVLPFTPVQYQRLTEISAVLFAHYPITVERVAGHSEIAPGRKTDPGLAFDWFFYQQNLAKLLV | not soluble |
| MLLNAVNQNQPTIAAEINYIKPNIQATFDLSTSKKSADTLTEQVDKRVVEITDARLLAKTATLKEDGFGLVANKYHMADYFDDAMVSTELYPQIIKHLMSLTNASKGVVFDHTIRSVEDKLHRAEKRSPIHTVHNDYVASSAQHRLHIELEKQGLKASDYHRYQFINTWIPLVDVVLDSPLAFADMRSVTSEQSHLLQVAYPDRVGEIEGFSYNPNNRWFYFSRMTSKEQLNFKVFDSDKSNAVNRTPHSAFLLPSVAENVQSRVSIELRTILLFNKLEHHHHHH | not soluble |
| MLLSPPTNCRFFCFLYFPKVSSSSWEEDGFDARTLLSTPTDSSGFSLYVFSVLFCFSNLL | not soluble |
| MLLSVIITAQGRKGYVMQAVRSVLSQNIPKEDFEIIVSKDFKDDVIDEFLDGRAIVLNENHIRSGSRVASAVLQSSGKILVFLDDDDLFYPGKLREVKIVFSEMGVDYFKNSVKPVAESGDTVSYYQPAIKSDIFVKEPNEQDIRKLLKLRAGFNSSSISLKKDILVGYLDVLSKINLAVDSFYFFLYMSHSRPIYYSKKTLSLYRVLSKSTSRDVRNINAYAEFKSKFYELYSRDFETISEMASDGPCSKLAKTEFHLQMAYKWIFNTYRKEERPRMLHTLASSIYSHDPFIALPWPSFMKKIVQRREYFREKKLLSENTELEHHHHHH | not soluble |
| MLLWVFEYNSVSRASWGDRVPVDKNSCACLEGGYAACLCGVAKSVKGRPVLRGVSLSVKFGEIHVLAGLNGAGKTTSLRVLVGLLSRDSGEARVLGVDPWGGGFERVKGEVGYLPEDASVYERLTGMENILFYARLYSGWRDVEELVENAVFYSGLSREDLARRAGGYSKGMKRRLLLGITLMSKPRLVVLDEPTSGVDPIASNRIKKILRGLSREGRAILVTTHDLALAEEIADRVTIIHGGSTVASGPPYRLVEEYCGETLEDAFVNIVTGGGC | soluble |
| MLMNEFEKACETLRKFMAYMLEKDMKSWTELWDENAVFEFPYAPEGSPKRIEGKAAIYDYIKDYPKQIHLSSFTAPTVYRSADSNTVIAEFQCDGHVIETGLPYRQSYISVIETRDGRIVRYRDYWNPLVVKEAFGGSFLQTEESGK | soluble |
| MLMSIREDVVEATSSIVPEKIHSDARNFSLVTSSSQVRSPLYLKSLDADGEDNSTVEKQITHSKKVADTELDRSLECLKENENDVKTNGEVELSAVEDALIQVVPEVSENQNPRKIGPYDFDQHANFLNS | not soluble |
| MLNADLKQQLKQLLELMEGNVEFVASLGSDDKSKELKDLLTEITDMSPRLSLSEKSLKRTPSFSVNRPGEETGVTFAGIPLGHEFNSLVLAILQVSGRAPKEKQSIIDQIKKLEGSFHFETFISLTCQKCPDVVQALNLMSVINPNITHSMIDGAVFREESENIMAVPAVFLNGEEFGNGRMTIQDILSKLGSTADASEFENKEPYDVLIVGGGPASGSAAIYTARKGLRTGIVADRIGGQVNDTAGIENFITVKETTGSEFSSNLAAHIDQYDIDAMTGIRATDIEKTDEAIKVTLENGAVLESKTVIIATGAGWRKLNIPGEEQLINKGVAFCPHCDGPLFENKDVAVIGGGNSGVEAAIDLAGIVNHVTLFEFASELKADNVLQDRLRSLSNVDIKTNAKTTEVVGEDHVTGIRYEDMNTGEEHLLNLDGIFVQIGLLPNTSWLNDAVELNERGEIVIDRNNNTNVPGIFAAGDVTDQKNKQIIISMGAGANAALNAFDYIIRN | not soluble |
